This is an account of results in patent US20060083742A1.

Assay [1] has as its target YFP-Bcl-XL (human) (UniProt Q07817). The experiment in a line: acceptor-photobleaching FRET on single mitochondria of living cells after PKC agonist.
Assay [2] concerns the target CFP-Bcl-XL (human) (UniProt Q07817). The experiment in a line: FRET on mitochondria of bryostatin-1 treated Cos-1 cell, with the fluorophores as the legend of FIG. 5A names them.

In the case of “CFP-K-Ras12V (from UniProt P01116 1-186)”, the FRET efficiency in assay [1] was determined as 17%.
In assay [2], “YFP-K-Ras12V (from UniProt P01116 1-186)” came in with an FRET efficiency of 17%.
